Measured values as given in patent US20140235701, “NGF APTAMER AND APPLICATION THEREOF” (RIBOMIC INC., published 2014).

Experiments:
Conditions in all cases: tags: R&D Systems; chain copies: 2
[1] = molecular target: T1, NGF (nerve growth factor) (Homo sapiens, UniProt P01138 P01138:122-241); assay: SPR; strong inhibition of NGF-receptor binding
Method: As directed in BIAcore's protocol, Protein A (21181, PIERCE) was immobilized on a CM5 sensor chip. About 700 to 1200 RU of human TrkA fused with the Fc portion of IgG (175-TK, R&D systems) or human P75 (367-NR, R&D systems) was immobilized thereon. As the analyte, a mixture of NGF (0.1 μM) and each aptamer (0.3 μM) was injected after being allowed to stand for 30 minutes. […] When NGF binds stronger to a receptor than an aptamer, the aptamer may be removed and NGF may bind to the receptor. Before starting the inhibition experiment, binding of TrkA or p75 and NGF was confirmed.

[2] = molecular target: T1, NGF (nerve growth factor); assay: SPR; more than 40N
Method: As the measuring apparatus, BIAcore2000 manufactured by BIAcore was used and, as the sensor chip, CM5 that reacts with an amino group was used. […] For the reaction of an amino group on the protein side and a carboxyl group on the chip side, ethyl-3-carbodiimide hydrochloride and N-hydroxysuccinimide were used. After the reaction, blocking by ethanolamine-HCl was performed. The immobilized amount of NGF was set to 3,000-4,000 RU. An aptamer for analyte was prepared to 0.15 μM-0.5 μM. As a running buffer, solution A was used. Here, solution A is a mixed solution of 145 mM sodium chloride, 5.4 mM potassium chloride, 1.8 mM calcium chloride, 0.8 mM magnesium chloride, 20 mM Tris (pH 7.6), 0.05% Tween 20. As a regeneration solution, a mixed solution of 1M NaCl and 50 mM NaOH was used. NGF was immobilized on FC2, and the results of FC1 were subtracted to give a final sensorgram.
The binding activity of these aptamers to NGF was evaluated by the surface plasmon resonance method in the same manner as in Example 1.

[3] = molecular target: T1, NGF (nerve growth factor); assay: cell_activity; neurite outgrowth inhibition
Method: The cells (2500 cells per well) were cultured for one day in an RPMI-1640 medium containing 2.5% horse serum and 1.25% fetal bovine serum in a 96 well flat-bottom plate coated with collagen type IV. […] Two days later, the cytoplasm and nuclei were stained using Cellomics Neurite Outgrowth Kit (manufactured by Thermo Scientific), and neurite length per cell was measured by Cellomics ArrayScan VTI (manufactured by Thermo Scientific). With the neurite length per cell obtained by the addition of NGF alone as inhibitory activity 0%, and that of the cell obtained by NGF free culture for 2 days as inhibitory activity 100%, the inhibitory activity of the aptamer was calculated from the neurite length per cell obtained by culturing with the addition of NGF and the aptamer in mixture.

[4] = molecular target: T1, NGF (nerve growth factor); assay: cell_activity; TF-1 cell proliferation inhibition
Method: Two NGF receptor (human TrkA and human p75) genes were introduced into TF-1 cells (ATCC Number: CRL-2003), which is a human erythroleukemic cell line, by using a retrovirus vector to give cells that highly express two receptors simultaneously and stably. The cells were suspended in an RPMI-1640 medium containing 20% fetal bovine serum, and seeded in a white 96 well flat-bottom plate at 1000 cells (50 μL) per well. […] With the amount of luminescence per well obtained by the addition of NGF alone and culture of the cells for 3 days as inhibitory activity 0%, and that of the well obtained by NGF free culture for 3 days as inhibitory activity 100%, the inhibitory activity of the aptamer was calculated from the amount of luminescence per well obtained by culturing with the addition of NGF and the aptamer in mixture.

[5] = molecular target: T1, NGF (nerve growth factor); assay: cell_activity; neurite; TF-1 >0.3
[6] = molecular target: T1, NGF (nerve growth factor); assay: cell_activity; neurite; TF-1 <0.3
[7] = molecular target: T1, NGF (nerve growth factor); assay: SPR; strong binding
[8] = molecular target: T1, NGF (nerve growth factor); assay: SPR; strong neurite inhibition at 10 nM
[9] = molecular target: T1, NGF (nerve growth factor); assay: SPR; binding maintained

T1 sequence (P01138 122-241, one chain of several): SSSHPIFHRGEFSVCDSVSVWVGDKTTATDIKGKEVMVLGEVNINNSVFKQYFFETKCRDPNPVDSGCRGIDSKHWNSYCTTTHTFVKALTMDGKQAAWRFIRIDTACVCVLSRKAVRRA

B1: SEQ ID NO: 5 (ssRNA)
RNA: GGGAGAACUUCGACCAGAAGUUAGAAGAGGACUAGUUGCUAAUGCCCUGGUUCGUCGCUAUAUGUGCGCAUACAUGGAUCCUC
modifications: 2'-F C and U; 2'-OH G; 2'-H (deoxy) A
Does B1 bind [1]?
Result: binds

B2: SEQ ID NO: 4 (ssRNA)
RNA: GGGAGAACUUCGACCAGAAGUACGUUAGUACGUUUGCAUAUGUACAACCUUGCAUACGAUACGUAGAUUAUGUGCGCAUACAUGGAUCCUC
modifications: 2'-F C and U; 2'-OH G; 2'-H (deoxy) A
Does B2 bind [1]?
Result: binds

B3: SEQ ID NO: 3 (ssRNA)
RNA: GGGAGAACUUCGACCAGAAGUUGGCACAUCCUGCUGCGUAGUUUCCGUCUCCGUGGCUGUUAUGUGCGCAUACAUGGAUCCUC
modifications: 2'-F C and U; 2'-OH G; 2'-H (deoxy) A
Does B3 bind [1]?
Result: binds

B4: SEQ ID NO: 17 (ssRNA)
RNA: AGAAGUGCAAUACUUUCGCGGCAUAUGUGCAAACCUUGCCACGACUAUGUGCGCAUAC
modifications: 2'-F C and U; 2'-OH G; 2'-H (deoxy) A
Does B4 bind [2]?
Result: binds

B5: SEQ ID NO: 162 (ssRNA)
RNA: GGGUCCUGGAUAAGAGTUUCCGUCUCGUAUCCTGUUACCC
modifications: 2'-F C5,U7,U18,U19,C20,C24,U25,U36; dT17,dT33; 2'-OH G8,G34; 2'-H A; 2'-OMe all other; idT 5' and 3'
B5 was tested. Which IC50 [3] did it give?
The IC50 was 33 pM.

And the IC50 [4]?
The IC50 was 14 pM.

B6: SEQ ID NO: 82(62) (ssRNA)
RNA: GGGUCCUGGAUAAGAGUUUCCGUCUCGUAUCCUGUUACCC
modifications: as 82(48) without 5' idT; PS between U33 and G34
For B6, which IC50 [5] is on record?
Its IC50 is 39 pM.

B7: SEQ ID NO: 82 (ssRNA)
RNA: GGGUCCUGGAUAAGAGUUUCCGUCUCGUAUCCUGUUACCC
modifications: 2'-F C/U, dA, 2'-OH G
B7 was tested. Which IC50 [6] did it give?
Its IC50 is under 300 pM.

B8: SEQ ID NO: 79 (ssRNA)
RNA: GGGUCCUGGUUAAGAGUUUCCGUCUCGUAACCUGUUACCC
modifications: 2'-F C/U, dA, 2'-OH G
B8 was tested. Which IC50 [6] did it give?
Its IC50 is under 300 pM.

B9: SEQ ID NO: 82(58) (ssRNA)
RNA: GGGUCCUGGAUAAGAGUUUCCGUCUCGUAUCCUGUUACCC
modifications: as 82(48) without 5' idT; PS between G8 and G9
How did the IC50 [5] turn out when B9 was run?
The IC50 was 72 pM.

B10: SEQ ID NO: 82(59) (ssRNA)
RNA: GGGUCCUGGAUAAGAGUUUCCGUCUCGUAUCCUGUUACCC
modifications: as 82(48) without 5' idT; PS between U11 and A12
Which IC50 [5] does the source give for B10 here?
Its IC50 is 34 pM.

B11: SEQ ID NO: 80 (ssRNA)
RNA: GGGUCCUGGCUAAGAGUUUCCGUCUCGUAGUCUGUUACCC
modifications: 2'-F C/U, dA, 2'-OH G
How did the IC50 [6] turn out when B11 was run?
The IC50 was under 300 pM.

B12: SEQ ID NO: 82(61) (ssRNA)
RNA: GGGUCCUGGAUAAGAGUUUCCGUCUCGUAUCCUGUUACCC
modifications: as 82(48) without 5' idT; PS between A13 and G14
B12 was tested. Which IC50 [5] did it give?
Its IC50 is 31 pM.

B13: SEQ ID NO: 111(1) (ssRNA)
RNA: GGGUCCUGUCUAAGAGUUUCCGUCUCGUAGACUGUUACCC
modifications: 2'-OMe except 2'-F C5,U7,U17-19,C20,C24,U25,U33,U36, 2'-OH G8,G34, dA12,dA13; 3' idT
How did the IC50 [5] turn out when B13 was run?
Its IC50 is 60 pM.

B14: SEQ ID NO: 77 (ssRNA)
RNA: GGGUCCUGACUAAGAGUUUCCGUCUCGUAGUCUGUUACCC
modifications: 2'-F C/U, dA, 2'-OH G
How did the IC50 [6] turn out when B14 was run?
The IC50 was under 300 pM.

B15: SEQ ID NO: 78 (ssRNA)
RNA: GGGUCCUGGCCAAGAGUUUCCGUCUCGUGGUCUGUUACCC
modifications: 2'-F C/U, dA, 2'-OH G
For B15, which IC50 [6] is on record?
Its IC50 is under 300 pM.

B16: SEQ ID NO: 76 (ssRNA)
RNA: GGGUCCUGAUUAAGAGUUUCCGUCUCGUAAUCUGUUACCC
modifications: 2'-F C/U, dA, 2'-OH G
Which IC50 [6] does the source give for B16 here?
The IC50 was under 300 pM.

B17: SEQ ID NO: 83 (ssRNA)
RNA: GGGUCCUGUACAAGAGUUUCCGUCUCGUGUACUGUUACCC
modifications: 2'-F C/U, dA, 2'-OH G
With B17 as the binder, how does the IC50 [6] read?
The IC50 was under 300 pM.

B18: SEQ ID NO: 19 (ssRNA)
RNA: GCAAUACUUUCGCGGCAUAUGUGCAAACCUUGCCACGACUAUGUGC
modifications: 2'-F C and U; 2'-OH G; 2'-H (deoxy) A
Does B18 bind [2]?
Result: binds

B19: SEQ ID NO: 7 (ssRNA)
RNA: GGGAGAACUUCGACCAGAAGACGCACCUCUUAUCACACAUGCGUCAGCCUUGUGAUACUAUGUGCGCAUACAUGGAUCCUC
modifications: 2'-F C and U; 2'-OH G; 2'-H (deoxy) A
Does B19 bind [1]?
Result: binds

B20: SEQ ID NO: 18 (ssRNA)
RNA: UGCAAUACUUUCGCGGCAUAUGUGCAAACCUUGCCACGACUAUGUGCG
modifications: 2'-F C and U; 2'-OH G; 2'-H (deoxy) A
Does B20 bind [2]?
Result: binds

B21: SEQ ID NO: 21 (ssRNA)
RNA: GGGAAUACUUUCGCGGCAUAUGUGCAAACCUUGCCACGACUAUGUCCC
modifications: 2'-F C and U; 2'-OH G; 2'-H (deoxy) A
Does B21 bind [2]?
Result: binds

B22: SEQ ID NO: 20 (ssRNA)
RNA: GUGCAAUACUUUCGCGGCAUAUGUGCAAACCUUGCCACGACUAUGUGCGC
modifications: 2'-F C and U; 2'-OH G; 2'-H (deoxy) A
Does B22 bind [2]?
Result: binds

B23: SEQ ID NO: 39 (ssRNA)
RNA: GGGUCCUGCUGCGCAGUUUCCGUCUGCGUGGCUGUUACCC
modifications: 2'-F C and U; 2'-OH G; 2'-H (deoxy) A
Does B23 bind [7]?
Result: binds

B24: SEQ ID NO: 93 (ssRNA)
RNA: GGGUCCUGCCGCGUAGUUUCCGUCUUCGCGGUUGUUACCC
modifications: 2'-F C/U, dA, 2'-OH G
Does B24 bind [8]?
Result: binds

B25: SEQ ID NO: 95 (ssRNA)
RNA: GGGUCCUGCUGCGUAGUUUCCAUCUUCGUGGCUGUUACCC
modifications: 2'-F C/U, dA, 2'-OH G
Does B25 bind [8]?
Result: binds

B26: SEQ ID NO: 98 (ssRNA)
RNA: GGGUCCUGCUACGUAGUUUCCGUCUACGUGGCUGUUACCC
modifications: 2'-F C/U, dA, 2'-OH G
Does B26 bind [8]?
Result: binds

B27: SEQ ID NO: 45 (ssRNA)
RNA: GGGUCCUGUUGCGUAGUUUCCUUCUACGUGGCUGUUACCC
modifications: 2'-F C and U; 2'-OH G; 2'-H (deoxy) A
Does B27 bind [7]?
Result: binds

B28: SEQ ID NO: 41 (ssRNA)
RNA: GGGUCCUGCUGCGAAGUUUCCUUCUUCGUGGCUGUUACCC
modifications: 2'-F C and U; 2'-OH G; 2'-H (deoxy) A
Does B28 bind [7]?
Result: binds

B29: SEQ ID NO: 40 (ssRNA)
RNA: GGGUCCUGCUGCGUAGUUUCCAUCUGCGUGGCUGUUACCC
modifications: 2'-F C and U; 2'-OH G; 2'-H (deoxy) A
Does B29 bind [7]?
Result: binds

B30: SEQ ID NO: 96 (ssRNA)
RNA: GGGUCCUGCUGCGUAGUUUCCGUCUAUGUGGCUGUUACCC
modifications: 2'-F C/U, dA, 2'-OH G
Does B30 bind [8]?
Result: binds

B31: SEQ ID NO: 94 (ssRNA)
RNA: GGGUCCUGCUGCGUAGUUUCCGUCUGCGGAGCUGUUACCC
modifications: 2'-F C/U, dA, 2'-OH G
Does B31 bind [8]?
Result: binds

B32: SEQ ID NO: 42 (ssRNA)
RNA: GGGUCCUGCUGCGCAGUUUCCCUCUGCGUGGCUGUUACCC
modifications: 2'-F C and U; 2'-OH G; 2'-H (deoxy) A
Does B32 bind [7]?
Result: binds

B33: SEQ ID NO: 63 (ssRNA)
RNA: GGGUCCUGCUGCGUAGUUUCCGUCUACGUGGCUGUUACCC
modifications: 2'-F C/U, dA, 2'-OH G
Does B33 bind [9]?
Result: binds

B34: SEQ ID NO: 64 (ssRNA)
RNA: GGGUCCUGUUGCGUAGUUUCCGUCUACGUGACUGUUACCC
modifications: 2'-F C/U, dA, 2'-OH G
Does B34 bind [9]?
Result: binds

B35: SEQ ID NO: 97 (ssRNA)
RNA: GGGUCCUGCUACGUAGUUUCCGUCUGCGUGGCUGUUACCC
modifications: 2'-F C/U, dA, 2'-OH G
Does B35 bind [8]?
Result: binds

B36: SEQ ID NO: 43 (ssRNA)
RNA: GGGUCCUGCUGCGGAGUUUCCUUCUUCGUGGCUGUUACCC
modifications: 2'-F C and U; 2'-OH G; 2'-H (deoxy) A
Does B36 bind [7]?
Result: binds

B37: SEQ ID NO: 2 (ssRNA)
RNA: GGGAGAACUUCGACCAGAAGUCCAAACGGGACUUUAUACCUCUGAGUCGCCUACGCUCCUAUGUGCGCAUACAUGGAUCCUC
modifications: 2'-F C and U; 2'-OH G; 2'-H (deoxy) A
Does B37 bind [1]?
Result: binds
